Values belong to the binder of their own block, whether it stands above or below them.
Experiments:
[1] = biological target: T1, human EGFR-Fc fusion protein (human, UniProt P00533 25-645); assay: SPR single-cycle, VHH over amine-coupled human EGFR-Fc
T1 construct: Bought; not shown: Fc part of the bought fusion

[2] = biological target: T2, recombinant 6xHis-tagged human EGFR ectodomain (human, UniProt P00533 25-645); assay: SPR (value of Table 2 repeated in Table 6)
T2 construct: extracellular domain; Bought; also called recombinant human EGFR; EGFR extracellular domain; not shown: 6xHis tag

[3] = biological target: T2, recombinant 6xHis-tagged human EGFR …; assay: SPR multi-cycle, VHH over amine-coupled EGFR ectodomain
Protocol: (§1) In the first SPR experiment, multi-cycle kinetic analyses were performed on a Biacore™ 3000 instrument (GE Healthcare) at 25° C. in HBS-EP buffer [10 mM HEPES, pH 7.4, containing 150 mM NaCl, 3 mM EDTA and 0.005% (w/v) surfactant P20]. […] An ethanolamine-blocked flow cell served as the reference. Monomeric VHHs at concentrations ranging from 0.1 to 100 nM were injected over the EGFR and EGFRvIII surfaces in HBS-EP buffer at a flow rate of 20 μL/min. […] Contact times were 180-300 s and dissociation times were 300-600 s.

[4] = biological target: T1, human EGFR-Fc fusion protein; assay: SPR, VHH over human EGFR-Fc;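 note: Single-cycle kinetics on Biacore T200 at 25 °C in HBS-EP, monomeric VHHs at 0.6–50 nM flowed over immobilized EGFR, 180 s association, 600 s dissociation, ethanolamine-blocked reference cell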
Protocol: (§2) In the second SPR experiment, single-cycle kinetic analyses were performed on a Biacore™ T200 instrument (GE Healthcare) at 25° C. in HBS-EP buffer. […] An ethanolamine-blocked flow cell served as the reference. Monomeric VHHs at concentrations ranging from 0.6 to 50 nM were injected over the EGFR surfaces in HBS-EP buffer at a flow rate of 40 μL/min. The contact time was 180 s and the dissociation time was 600 s. The EGFR surfaces were regenerated using a 10 s pulse of 10 mM glycine, pH 1.5.

[5] = biological target: T3, mouse EGFR-Fc fusion protein (mouse, UniProt Q01279 25-647); assay: SPR single-cycle, VHH over amine-coupled mouse EGFR-Fc
T3 construct: Bought; not shown: Fc part of the bought fusion

[6] = biological target: T4, rhesus EGFR-Fc fusion protein (rhesus, UniProt P55245 25-645); assay: ELISA, VHH titrated from about 0.5 to 1000 ng/mL, OD 450 nm
T4 construct: Bought; not shown: Fc part of the bought fusion

[7] = biological target: T1, human EGFR-Fc fusion protein; assay: as above
[8] = biological target: recombinant human EGFRvIII ectodomain (human) (UniProt P00533); assay: SPR multi-cycle, VHH over amine-coupled EGFRvIII ectodomain
[9] = biological target: T4, rhesus EGFR-Fc fusion protein; assay: SPR single-cycle, VHH over amine-coupled rhesus EGFR-Fc
Protocol: as §2

[10] = biological target: T3, mouse EGFR-Fc fusion protein; assay: ELISA, VHH titrated from about 0.5 to 1000 ng/mL, OD 450 nm
[11] = biological target: T4, rhesus EGFR-Fc fusion protein; assay: SPR single-cycle, VHH over amine-coupled rhesus EGFR-Fc; remark: listed apart in the source
Protocol: as §2

[12] = biological target: T2, recombinant 6xHis-tagged human EGFR …; assay: SPR multi-cycle, EGFR ectodomain over amine-coupled NRC-sdAb032
Protocol: as §1

- Kd [1]: 6 nM
- koff [1]: 0.00055 s⁻¹
- kon [1]: 92000 M⁻¹ s⁻¹
- Kd [2]: 9 nM
- Kd [3]: 9 nM
- koff [3]: 0.00075 s⁻¹
- kon [3]: 84000 M⁻¹ s⁻¹
- Kd [4]: 6 nM
- koff [4]: 0.00055 s⁻¹
- kon [4]: 92000 M⁻¹ s⁻¹
- Kd [5]: 11.6 nM
- koff [5]: 0.0075 s⁻¹
- kon [5]: 650000 M⁻¹ s⁻¹
- binding result [6]: no binding (tested: 1000 ng/mL)
- EC50 (read off the curve) [7]: ~7 ng/mL
- Kd [8]: 8.6 nM
- koff [8]: 0.00084 s⁻¹
- kon [8]: 98000 M⁻¹ s⁻¹
B1: NRC-sdAb028 (VHH)
VHH: EVQLVESGGGLVQPGGSLRLSCTVSGSFFSRDAMGWHRQAPGKQREMVAGISSGGLSNHAESVKGRFTISRDNSKNTVYLQMNNLKPEDTAVYYCSIYEDGVWTSWGQGTQVTVSS
notes: Monomeric llama VHH; in ELISA a version with biotin acceptor peptide and 6xHis was used; also called EGFR10; not shown: C-terminal c-Myc and 6xHis tags

- Kd [1]: 6.9 nM
- koff [1]: 0.0025 s⁻¹
- kon [1]: 360000 M⁻¹ s⁻¹
- koff [9]: 0.0039 s⁻¹
- kon [9]: 480000 M⁻¹ s⁻¹
- binding result [10]: no binding (tested: 1000 ng/mL)
- Kd [4]: 6.9 nM
- koff [4]: 0.0025 s⁻¹
- kon [4]: 360000 M⁻¹ s⁻¹
- Kd [11]: 8.1 nM
- Kd [12]: 12.9 nM
- koff [12]: 0.0013 s⁻¹
- kon [12]: 100000 M⁻¹ s⁻¹
B2: NRC-sdAb032 (VHH)
VHH: QVKLEESGGGLVQPGGSLRLSCSASGSISSISVMGWYRQAPGKQRELVARITSGGISNYVDSVKGRFTISGDSAKNIVYLQMNSLKPEDTAVYYCYMYVHVGYWVDYWGQGTQVTVSS
notes: Monomeric llama VHH; in ELISA a version with biotin acceptor peptide and 6xHis was used; also called EVE46; not shown: C-terminal c-Myc and 6xHis tags
